For assay [1], the target named is T1, cynomolgus IgE (recombinant chimaeric D12 variable region / cynomolgus IgE constant region) (cynomolgus monkey (constant region)). As to the kind of experiment: cell-based or functional assay.
In assay [2] the target is human IgEλ (U266 derived) (human, UniProt P01854 1-546). Description: cell-based or functional assay.
Assay [3] addresses T2, Cynomolgus Cε3-4 FLAG His10 (cynomolgus monkey).
T2 construct: also called cynomolgus IgE Cε3-Cε4 domain (in house HEK-EBNA derived)
T2 chain: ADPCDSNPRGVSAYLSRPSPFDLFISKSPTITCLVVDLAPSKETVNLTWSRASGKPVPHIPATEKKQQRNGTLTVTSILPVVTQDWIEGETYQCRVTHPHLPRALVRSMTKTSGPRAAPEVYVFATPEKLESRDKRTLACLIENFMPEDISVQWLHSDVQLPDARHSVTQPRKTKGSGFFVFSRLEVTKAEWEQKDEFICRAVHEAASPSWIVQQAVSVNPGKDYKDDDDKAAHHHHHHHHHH
As to the kind of experiment: DELFIA epitope competition; competitor vs biotinylated human IgE on immobilised IgG. As for the experimental part: (§1) Purified IgG were adsorbed onto 96-well Maxisorp microtitre plates (Nunc) in PBS at a concentration which gave a significant signal when biotinylated human IgE was added at approximately its estimated KD for that particular IgG. Excess IgG was washed away with PBS-Tween (0.1% v/v) and the wells were blocked with PBS-Marvel (3% w/v) for 1 h. […] To this series, an equal volume of biotinylated human IgE at a concentration of approximately the KD was added (resulting in a series starting at a ratio of competitor antigen:biotinylated human IgE of approximately 1000:1). These mixtures were then transferred onto the blocked IgG and allowed to equilibrate for 1 h. Unbound antigen was removed by washing with PBS-Tween (0.1% v/v), while the remaining biotinylated human IgE was detected by streptavidin-Europium3+ conjugate (DELFIA® detection, PerkinElmer). Time-resolved fluorescence was measured at 620 nm on an EnVision plate reader (PerkinElmer). Fluorescence data were analysed using either Graphpad Prism or Microsoft Excel software.

For assay [4], the target named is T3, human IgE Cε3-Cε4 domain, C-terminally tagged with FLAG His10 (human, UniProt P01854-1 209-428, limits assumed).
T3 construct: domain: Cε3-Cε4; secreted with murine IgG1 leader from HEK293-EBNA cells; also called human IgE Ce3-4; human IgE Cε3-Cε4 domain (in house HEK-EBNA derived)
T3 sequence (P01854 other isoform, or with tags, fused parts or gaps limits assumed): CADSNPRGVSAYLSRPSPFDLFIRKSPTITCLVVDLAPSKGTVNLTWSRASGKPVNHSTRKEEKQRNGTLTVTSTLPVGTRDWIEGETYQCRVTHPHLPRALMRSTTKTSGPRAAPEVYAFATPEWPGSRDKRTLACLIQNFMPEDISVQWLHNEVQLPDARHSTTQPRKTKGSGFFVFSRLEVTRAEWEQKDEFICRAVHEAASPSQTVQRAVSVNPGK
Described as above. As for the experimental part: as §1

For assay [5], the target named is T4, human IgE (source not stated for the assay) (human, UniProt P01854-1 1-428). Description: cell-based or functional assay.
T4 sequence (P01854 other isoform, or with tags, fused parts or gaps): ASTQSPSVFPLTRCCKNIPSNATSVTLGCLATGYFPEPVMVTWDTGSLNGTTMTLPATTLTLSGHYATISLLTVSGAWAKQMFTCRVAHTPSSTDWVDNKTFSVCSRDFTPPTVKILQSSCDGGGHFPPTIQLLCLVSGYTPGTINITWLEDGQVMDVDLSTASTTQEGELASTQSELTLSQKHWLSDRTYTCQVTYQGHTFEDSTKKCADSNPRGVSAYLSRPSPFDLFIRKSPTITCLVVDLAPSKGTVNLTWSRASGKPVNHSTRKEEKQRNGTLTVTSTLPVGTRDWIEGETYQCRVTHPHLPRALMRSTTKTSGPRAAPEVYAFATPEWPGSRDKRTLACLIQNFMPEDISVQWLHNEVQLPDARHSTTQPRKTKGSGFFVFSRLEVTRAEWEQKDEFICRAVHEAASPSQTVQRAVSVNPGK
Assay [6] addresses T4, human IgE (source not stated for the …). Description: SPR, BIAcore 2000; IgE amine-coupled to CM5 chip, IgG as analyte, bivalent analyte model; geomean. As for the experimental part:
(§2) The binding affinity of purified IgG samples of a representative number of clones to human and cynomolgus IgE was determined by surface plasmon resonance using BIAcore 2000 biosensor (BIAcore AB) essentially as described by Karlsson et al 1991; Journal of Immunological Methods 145 (1-2) 229-240. In brief, purified human or cynomolgus IgE was covalently coupled to the surface of a CM5 sensor chip (BIAcore) using standard amine coupling reagents according to the manufacturer's instructions to provide a surface density of 100 RU. IgG samples prepared in HBS-EP buffer (BIAcore (AB), at a range of concentrations, between 250 nM and 15.6 nM were passed over the sensor chip surface. The surface was regenerated using 10 mM Glycine, pH 1.75 between each injection of antibody. The resulting sensorgrams were evaluated using BIA evaluation 3.1 software and fitted to a bivalent analyte model, to provide relative binding data.
For orientation: SPR reads the build-up and loss of mass on a sensor chip optically.

Assay [7] addresses T5, human IgEλ (U266 derived) (human, UniProt P01854 1-546). Description: cell-based or functional assay. This is another data set of the same source.
The target in assay [8] is T5, human IgEλ (U266 derived). Description: flow cytometry competition; IgG titrated, mixed with IgE (U266, 10 µg/mL), IgE binding to CD23 on IL-4 treated IM9 cells. As for the experimental part: Some of these optimised antibodies were evaluated for inhibition of the IgE/CD23 interaction using the IM9 binding assay as previously described.
Antibody dilutions (667 nM to 1 nM) were prepared in U-bottomed polypropylene plates (Greiner) and mixed with IgE (U266-derived [Ikeyama et. al. 1986. Molecular Immunology 23 (2); p159-167]) to a final IgE concentration of 10 μg/mL for 30 minutes at room temperature. Cell plates were spun at 2000 rpm for 2 minutes and supernatant was aspirated, leaving the cell pellet intact. Cells were resuspended in 100 μL/well antibody/IgE mix and incubated on ice for 1 hour. Cell plates were centrifuged at 2000 rpm for 2 minutes and antibody/IgE supernatants were aspirated. Cells were washed by resuspending in 200 μL/well of Flow buffer and centrifuging as above.
IgE bound to the cell surface was detected with anti-IgE-phycoerythin (Caltag) diluted 1/30, v/v, 100 μL/well. Assay plates were incubated on ice for 20 minutes in the dark before centrifuging at 2000 rpm for 2 minutes and washing with 2×200 μL of Flow buffer as described above. Cells were resuspended in 100 μL Cell Fix (BD biosciences) and analysed using a FACSCalibur (BD Biosciences) to detect FL2 staining.
Background: In flow cytometry, cells or beads pass a laser one at a time.

The target of assay [9] is T1, cynomolgus IgE (recombinant chimaeric …). As to the kind of experiment: SPR, BIAcore 2000; cynomolgus IgE amine-coupled to CM5 chip, IgG as analyte, bivalent analyte model; geomean. As for the experimental part: as §2
For assay [10], the target named is T5, human IgEλ (U266 derived). As to the kind of experiment: cell-based or functional assay. This is another data set of the same source.

T1 sequence (heavy, as listed by the source limits assumed, chain 1 of 2): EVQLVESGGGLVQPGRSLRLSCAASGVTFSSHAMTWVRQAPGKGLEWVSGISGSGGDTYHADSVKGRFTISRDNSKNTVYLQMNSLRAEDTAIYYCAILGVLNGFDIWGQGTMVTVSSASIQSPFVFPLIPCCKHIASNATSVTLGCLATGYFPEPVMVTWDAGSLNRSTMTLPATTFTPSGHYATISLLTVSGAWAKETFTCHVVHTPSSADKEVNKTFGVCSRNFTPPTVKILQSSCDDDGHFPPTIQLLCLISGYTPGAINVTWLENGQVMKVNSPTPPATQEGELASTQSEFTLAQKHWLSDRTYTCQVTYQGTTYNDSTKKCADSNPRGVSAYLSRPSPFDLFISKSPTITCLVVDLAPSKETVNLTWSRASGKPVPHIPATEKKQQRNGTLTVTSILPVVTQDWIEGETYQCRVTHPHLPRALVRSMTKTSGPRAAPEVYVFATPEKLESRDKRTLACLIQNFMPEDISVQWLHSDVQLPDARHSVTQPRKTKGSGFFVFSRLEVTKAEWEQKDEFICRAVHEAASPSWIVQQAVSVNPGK
T1 sequence (light, as listed by the source limits assumed, chain 2 of 2): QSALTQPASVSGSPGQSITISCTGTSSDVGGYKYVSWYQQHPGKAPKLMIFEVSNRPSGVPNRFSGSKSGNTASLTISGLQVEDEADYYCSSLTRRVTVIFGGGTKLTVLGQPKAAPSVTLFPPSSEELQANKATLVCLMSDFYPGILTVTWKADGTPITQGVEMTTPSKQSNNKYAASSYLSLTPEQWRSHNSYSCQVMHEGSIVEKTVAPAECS

B1: Antibody 26 (IgG) (antibody, V domains shown)
VH: EVQLLESGGGLVQPGGSLRLSCAASGLTFSGYAMSWVRQAPGKGLEWVSAISGSGGRTYYADSVKGRFTISRDNSKNMLYLQMNSLRAEDTAVYYCARHIAVAGTRGFDYWGRGTLVTVSS
VL: SFVLTQPPSVSVSPGQTASITCSGDKLGDTYASWYRQRSGQSPVLVIYQDDKRPSGIPERFSGSNSGNTATLTIGGTHTMDEADYYCLAWDTRTSGAVFGGGTKLTVL
For the molecule B1, in assay [1], the “RBL-ER51 calcium signalling IC50 (nM) Geomean, cynomolgus IgE 100 ng/ml” value is 17 nM. Also, the “RBL-ER51 calcium signalling IC50 (nM) Geomean, human IgE 25 ng/ml” value in assay [2] was 1.2 nM.

B2: Antibody 1 (IgG) (antibody, V domains shown)
VH: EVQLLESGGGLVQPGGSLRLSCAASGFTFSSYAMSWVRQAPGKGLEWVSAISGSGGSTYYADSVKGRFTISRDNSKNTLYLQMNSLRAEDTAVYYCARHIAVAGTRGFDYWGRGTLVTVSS
VL: SYVLTQPPSVSVSPGQTASITCSGDKLGDKYASWYRQRSGQSPVLVIYQDDKRPSGIPERFSGSNSGNTATLTISGTHTMDEADYYCLAWDTRTSGAVFGGGTKLTVL
notes: also called parent antibody
For B2, the binding result in assay [3] and in assay [4] was “no binding” each time. The “RBL-ER51 calcium signalling IC50” value in assay [5] was found to be 267 nM.

B3: Antibody 9 (IgG) (antibody, V domains shown)
VH: EVQLLESGGGLVQPGGSLRLSCAASGFTFSSYAMSWVRQAPGKGLEWVSAISGGSGGRTYYADSVKGRFTISRDNSKNTLYLQMNSLRAEDTAVYYCARHIAVAGTRGFDYWGRGTLVTVSS
VL: SFVLSQPPSVSVSPGQTASITCSGDKLGDTYASWYRQRSGQSPVLVIYQDDKRPSGIPERFSGSNSGNTATLTISGTHTMDEADYYCLAWDTRTSGAVFGGGTKLTVL
As to B3, in [6], the Kd worked out at 79 nM. In assay [1], the “RBL-ER51 calcium signalling IC50 (nM) Geomean, cynomolgus IgE 100 ng/ml” value amounted to 4.5 nM. In addition, the “RBL-ER51 calcium signalling IC50 (nM) Geomean, human IgE 25 ng/ml” value in assay [2] is 0.286 nM.

B4: Antibody 34 (IgG) (antibody, V domains shown)
VH: EVQLLESGGGLVQPGGSLRLSCAAPGFTLSSYAMSWVRQAPGKGLEWVSAISGGSGGRTYYADSVKGRFTISRDNSKNTLYLQMNSLRAEDTAVYYCARHIAVAGTRGFDYWGRGTLVTVSS
VL: SYVLTQPPSVSASPGQTASITCSGDKLGDTYASWYRQRSGQSPVLVIYQDDKRPPGIPERFSGSNSGNTATLTIRGTHTMDEADYYCLAWDTRTSGAVFGGGTKLSVL
Consider B4, for which the Kd in assay [6] worked out at 26 nM. Besides, in [1], the “RBL-ER51 calcium signalling IC50 (nM) Geomean, cynomolgus IgE 100 ng/ml” value worked out at 22 nM. Also, the “RBL-ER51 calcium signalling IC50 (nM) Geomean, human IgE 25 ng/ml” value in assay [2] came out at 0.223 nM.

B5: Antibody 10 (IgG) (antibody, V domains shown)
VH: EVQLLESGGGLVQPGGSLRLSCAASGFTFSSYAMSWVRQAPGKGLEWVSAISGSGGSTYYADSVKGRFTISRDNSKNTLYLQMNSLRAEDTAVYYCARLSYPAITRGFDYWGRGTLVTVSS
VL: SYVLTQPPSVSVSPGQTASITCSGDKLGDKYASWYRQRSGQSPVLVIYQDDKRPSGIPERFSGSNSGNTATLTISGTHTMDEADYYCLAWDTRTSGAVFGGGTKLTVL
In turn, B5 displayed a Kd in assay [6] of 1.3 nM. For the same molecule, in [2], the “RBL-ER51 calcium signalling IC50 (nM) Geomean, human IgE 25 ng/ml” value was found to be 1.5 nM.

B6: Antibody 33GL (germlined IgG) (antibody, V domains shown)
VH: EVQLLESGGGLVQPGGSLSLSCAAPGFTFSSYAMSWVRQAPGKGLEWVSAISGGSGGRTYYADSVKGRFTISKDNSKNTLYLQMNSLRAEDTAVYYCARHIAVAGTRGFDYWGRGTLVTVSS
VL: SYELTQPPSVSVSPGQTASITCSGDKLGDTYASWYQQKPGLSPALVIYQDDKRPSGIPERFSGSNSGNTATLTISGTQAMDEADYYCLAWDTRTSGAVFGGGTKLTVL
notes: germlined IgG; also called Antibody 35 (provisional application)
As for B6, in [6], the Kd stood at 0.142 nM. Also, the “RBL-ER51 calcium signalling IC50 (nM) Human IgE Geomean” value in assay [7] stood at 0.197 nM. Moreover, the binding result in [3] and in assay [4] was “no binding” each time.

B7: Antibody 33 (IgG) (antibody, V domains shown)
VH: EVQLLESGGGLVQPGGSLSLSCAAPGFTFSSYAMSWVRQAPGKGLEWVSAISGGSGGRTYYADSVKGRFTISKDNSKNTLYLQMNSLRAEDTAVYYCARHIAVAGTRGFDYWGRGTLVTVSS
VL: SYVLTQPPSVSVSPGQTASITCSGDKLGDTYASWYRQRSGLSPALVIYQDDKRPSGIPERFSGSNSGNTATLTISGTHTMDEADYYCLAWDTRTSGAVFGGGTKLTVL
One may read the IC50 as the point on the concentration scale where inhibition reaches its midpoint. As for B7, the figures for the Kd in assay [6] and in assay [9] were 0.8 nM and 2.3 nM, respectively. The IC50 in assay [8] stood at 83 nM. Besides, the “RBL-ER51 calcium signalling IC50 (nM) Geomean, human IgE 25 ng/ml” value in assay [10] came to 0.112 nM. The “RBL-ER51 calcium signalling IC50 (nM) Geomean, cynomolgus IgE 100 ng/ml” value in assay [1] is 5.1 nM.

B8: Antibody 15 (IgG) (antibody, V domains shown)
VH: EVQLLESGGGLVQPGGSLRLSCAAPGFTFSSYAMSWVRQAPGKGLEWVSAISGGSGGRTYYADSVKGRFTISRDNSKNTLYLQMNSLRAEDTAVYYCARHIAVAGTRGFDYWGRGTLVTVSS
VL: SYVLTQPPSVSVSPGQTASITCSGDKLGDTYASWYRQRSGQSPVLVIYQDDRRPSGIPERFSGSNSGNTATLTISGTHTMDEADYYCLAWDTRTSGAVFGGGTKLTVL
As to B8, the Kd was found to be 0.9 nM in [6] and 7 nM in assay [9]. Besides, the “RBL-ER51 calcium signalling IC50 (nM) Geomean, cynomolgus IgE 100 ng/ml” value in assay [1] is 5.4 nM. In addition, in [2], the “RBL-ER51 calcium signalling IC50 (nM) Geomean, human IgE 25 ng/ml” value worked out at 0.341 nM.

The values are drawn from US20110212084A1 (AstraZeneca / MedImmune, published 2011).
